Measurements: the supplement of paper PMC10567573

B1: KLHL14 (parent)
chain: WLYCYDPVMDVWARKQDMNTKRAI
B2: SEPHS2 (parent)
chain: KASGRFGLLQGTSAETSGGLLICL

Variants of: B1
Assay: protein stability index of a GFP-peptide fusion (GPS, HEK-293T) (PSI 1-6); higher = more stable
Details: c terminus: a fixed tail appended
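Further: lentivirally expressed fusions sorted by FACS into six bins by GFP to DsRed ratio, PSI derived from sequencing read proportions per bin multiplied by bin number.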

Protein stability index, by site and new letter:
T20: Y 2.02, W 2.34
R22: I 1.74, C 2.15, V 1.72, Q 1.77, N 1.82, Y 2.01, K 2, F 1.51, H 2.01, G 1.69, S 2.12, P 1.8, L 1.83, A 2.32, T 1.91, M 1.88, E 2.19, W 1.69, D 2.13
K21: M 2.08, P 1.58, R 1.83, I 1.71, G 2.61, D 2.34, F 1.86, H 1.94, A 1.78, S 1.91, Y 1.92, T 1.83, V 1.91, E 1.91, N 1.81, Q 1.86, L 1.88, W 2.2, C 2.23
A23: D 2.22, N 1.7, R 2.62, F 2.24, C 1.78, I 1.57, W 1.37, E 2.33, Y 1.92, P 1.58, T 1.76, S 1.97, Q 2.11, K 1.97, M 2.22, L 1.6, H 2.02, G 1.51, V 1.63
I24: Q 2.79, F 1.42, N 2.29, G 2.13, L 2.25, E 2.31, A 2.36, S 2.86, M 2.16, D 2.92, T 1.87, C 1.99, K 2.44, V 2.53, P 2.68, R 1.4, Y 2.45, W 2.39, H 2.63

Variants of: B2
Assay: as above
Details: c terminus: a fixed tail appended

Protein stability index: each site, then its substitutions
L8: C 3.4, A 2.02, I 2.17, V 3.22, K 3.37, F 2.18, Y 1.85, W 2.08, G 3.65, M 2.26
G4: K 3.51, A 4.01, D 2.9, P 1.95, Q 2.76, S 3.04, T 3.11, E 3.09, L 2.01
L9: R 2.98, V 1.74, N 1.78, I 2.41, P 2.32, Y 2.09, E 2.76
G7: Y 2.71, N 2.13, K 3.27, W 2.21, T 1.88, A 3.63, D 3.42, H 2.78, I 2.32, S 2.55, L 3.5
K1: W 2.52, S 3.13, D 2.07, L 2.28, E 2.6, G 1.44, N 1.95, T 1.69, C 2.13
R5: F 3.72, A 5.51, W 1.66, D 2.61, T 3.23, I 3.36, K 2.97, L 3.49, H 3.5, C 2.27, V 3.1
S3: T 3.36, R 1.82, E 2.76, F 1.71, M 1.51, D 2.07, H 4.72, A 1.55, P 3.31
Q10: M 3.87, I 3.54, E 2.2, N 2.95
A2: Q 3.26, S 3.5, V 3.69, G 1.38, W 2.41, D 2.81, Y 2.29
F6: S 1.81, M 2.44, W 4.73, K 1.79, I 2.31, V 1.57, Q 2.79, D 1.03, E 2.37, L 2.48, T 3.52, Y 1.75
